Data from patent US6509447B1, “G protein chimeras and methods of screening compounds” (Glaxo Welcome Inc., priority 1997, dated 2003).

Legend:
[1] = target: T1, purinergic nucleotide receptor, P2Y2 (Homo sapiens, UniProt P41231); test: Reverse halo assay for FUS1-HIS3 expression, MMY9 cells, P2Y2; format: cell-based; conditions: MMY9 cells with pRS314-GPA1 and P2Y2 receptor, 100 nmol UTP
T1 construct: expressed in transfected cells; host or cells: Saccharomyces cerevisiae strains MMY9 and MMY11, plasmid pDT-PGK-P2Y2
Description: Assay for FUS1-HIS3 Expression. Reverse halo assays were carried out by growing MMY9 cells to early stationary phase (OD600≈4) in liquid SC-glucose (2%) medium lacking tryptophan and uracil. A uniform layer of cells (5×10^7) was plated to 22.5 cm by 22.5 cm bioassay dishes (Nunc) in 100 ml SC-glucose agar (1%) equilibrated to 50° C. This medium lacked tryptophan, uracil and histidine, and was supplemented with 10 mM 3-aminotriazole, and buffered to pH 7.0 with 0.1M sodium phosphate. Antibiotic discs were placed on the solidified agar, and a volume of agonist solution (1-5 μl) was applied to each disc. Plates were incubated at 30° C. for 3 days.
The four receptors were: the melatonin ML1B receptor, the serotonin 5HT1A receptor, the somatostatin SST2 receptor and the purinergic nucleotide receptor, P2Y2. […] Activation of the pheromone response pathway was monitored with two integrated reporter genes: […] allowing a growth readout in medium lacking histidine, and FUS1-lacZ allowing a β-galactosidase readout. […] Agonist-dependent activation of FUS1-HIS3 was determined by reverse halo assay in which agonists were applied to the filter discs in the arrangement shown in panel A, in quantities as follows: 3 nmol of somatostatin-14 (S-14); 40 nmol of melatonin (Mel); 3 nmol of α-factor; 100 nmol of UTP; 40 nmol of serotonin (5-HT). […]

[2] = system: purinergic nucleotide P2Y2 receptor; test: CPRG assay, MMY11 cells expressing P2Y2 receptor plus Gα subunit; format: cell-based, human; set-up: key: weak activation insufficient to carry out curve-fitting was detected; NC: no coupling was detected
Description: (§1) Assay for combined FUS1-lacZ and FUS1-HIS3 Expression. In vivo assays of reporter gene induction (CPRG assays) were carried out by suspending cells to 0.02 OD600 in 200 μl SC-glucose (2%) lacking tryptophan, uracil and histidine. This medium was supplemented with agonists, and additionally 10 mM 3-aminotriazole and the β-galactosidase (lacZ) substrate chlorophenolred-β-D-galactopyranoside (CPRG; Boehringer) to a concentration of 0.1 mg/ml. To visualise the colour change reaction, the medium was buffered to pH 7 with 0.1 M sodium phosphate. The assay was conducted in a 96-well microtitre plate format. Plates were incubated for 24 hours without agitation, and absorbance at 570 nm was determined using a Victor microtitre plate reader (Wallac). EC50 values (+/−standard error) were estimated by curve-fitting, using the Robosage software package.
(§2) MMY11 was used in an experiment in which cells were transformed with pairs of plasmids as before, one to express a Gα subunit and the other a receptor expression construct. […] Where pheromone response pathway activation was detected, the agonist concentration required to yield a half-maximal response (EC50+/−standard error; all values in nM except where otherwise indicated) was determined by curve-fitting, and is shown in Table 4A. Where no coupling was detected, this is also indicated (NC).

[3] = target: T2, purinergic nucleotide P2Y1 receptor (Homo sapiens, UniProt P47900); test: CPRG assay, MMY11 cells expressing P2Y1 receptor plus Gα subunit; format: cell-based; set-up: key: weak activation insufficient to carry out curve-fitting was detected; NC: no coupling was detected
T2 construct: expressed in transfected cells; host or cells: Saccharomyces cerevisiae strain MMY11, plasmid pDT-PGK-P2Y1
Description: as §1, §2

Sequence of purinergic nucleotide P2Y2 receptor (P41231 1-347 limits assumed): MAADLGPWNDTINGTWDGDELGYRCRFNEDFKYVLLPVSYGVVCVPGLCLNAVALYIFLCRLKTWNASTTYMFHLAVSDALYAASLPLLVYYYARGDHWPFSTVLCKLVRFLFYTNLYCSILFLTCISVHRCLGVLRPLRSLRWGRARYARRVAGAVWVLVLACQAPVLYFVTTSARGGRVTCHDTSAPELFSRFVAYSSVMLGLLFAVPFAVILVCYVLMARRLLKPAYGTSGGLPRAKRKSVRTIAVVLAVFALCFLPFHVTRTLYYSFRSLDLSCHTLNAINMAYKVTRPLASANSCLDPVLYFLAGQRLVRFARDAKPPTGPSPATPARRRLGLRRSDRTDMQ
T1 sequence (P41231 whole entry): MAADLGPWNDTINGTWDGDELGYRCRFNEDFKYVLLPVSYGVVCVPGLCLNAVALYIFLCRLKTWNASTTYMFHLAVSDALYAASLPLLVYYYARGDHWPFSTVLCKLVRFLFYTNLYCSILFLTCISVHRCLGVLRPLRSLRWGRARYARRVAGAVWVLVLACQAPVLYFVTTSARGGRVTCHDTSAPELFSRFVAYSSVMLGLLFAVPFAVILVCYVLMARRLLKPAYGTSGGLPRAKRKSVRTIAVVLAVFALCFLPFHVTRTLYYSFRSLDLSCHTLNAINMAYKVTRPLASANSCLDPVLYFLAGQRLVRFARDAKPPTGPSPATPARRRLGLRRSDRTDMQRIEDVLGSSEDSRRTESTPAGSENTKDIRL
T2 sequence (P47900 whole entry): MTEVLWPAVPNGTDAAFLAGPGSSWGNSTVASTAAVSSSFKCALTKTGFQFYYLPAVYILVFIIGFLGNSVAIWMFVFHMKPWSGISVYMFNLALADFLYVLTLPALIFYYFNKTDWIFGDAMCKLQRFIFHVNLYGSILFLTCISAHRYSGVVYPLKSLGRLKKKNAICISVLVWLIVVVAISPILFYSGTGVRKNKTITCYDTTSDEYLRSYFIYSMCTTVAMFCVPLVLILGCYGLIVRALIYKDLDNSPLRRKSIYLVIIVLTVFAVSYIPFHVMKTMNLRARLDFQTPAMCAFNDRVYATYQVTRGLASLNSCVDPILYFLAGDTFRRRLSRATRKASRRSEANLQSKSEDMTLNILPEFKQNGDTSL

B1: Gpa1p: endogenous yeast Gα subunit, product of the GPA1 gene (protein, UniProt P08539 2-472, looked up)
Guanine nucleotide-binding …: GCTVSTQTIGDESDPFLQNKRANDVIEQSLQLEKQRDKNEIKLLLLGAGESGKSTVLKQLKLLHQGGFSHQERLQYAQVIWADAIQSMKILIIQARKLGIQLDCDDPINNKDLFACKRILLKAKALDYINASVAGGSDFLNDYVLKYSERYETRRRVQSTGRAKAAFDEDGNISNVKSDTDRDAETVTQNEDADRNNSSRINLQDICKDLNQEGDDQMFVRKTSREIQGQNRRNLIHEDIAKAIKQLWNNDKGIKQCFARSNEFQLEGSAAYYFDNIEKFASPNYVCTDEDILKGRIKTTGITETEFNIGSSKFKVLDAGGQRSERKKWIHCFEGITAVLFVLAMSEYDQMLFEDERVNRMHESIMLFDTLLNSKWFKDTPFILFLNKIDLFEEKVKSMPIRKYFPDYQGRVGDAEAGLKYFEKIFLSLNKTNKPIYVKRTCATDTQTMKFVLSAVTDLIIQQNLKKIGII
agonist-dependent activation of FUS1-HIS3 (halo of cell growth) [1]: responded to the agonist UTP | coupling class where no EC50 could be fitted [2]: weak | coupling class where no EC50 could be fitted [3]: NC
